The record followed here is patent US20260217791A1 (COMPLEMENT THERAPEUTICS, published 2026).

In the assay the target is human C3b (human, UniProt P01024 23-667; P01024 749-1663, limits assumed). Put plainly: cell-based or functional assay.
human C3b, sequence (P01024 23-667 limits assumed, form in doubt, chain 1 of 2): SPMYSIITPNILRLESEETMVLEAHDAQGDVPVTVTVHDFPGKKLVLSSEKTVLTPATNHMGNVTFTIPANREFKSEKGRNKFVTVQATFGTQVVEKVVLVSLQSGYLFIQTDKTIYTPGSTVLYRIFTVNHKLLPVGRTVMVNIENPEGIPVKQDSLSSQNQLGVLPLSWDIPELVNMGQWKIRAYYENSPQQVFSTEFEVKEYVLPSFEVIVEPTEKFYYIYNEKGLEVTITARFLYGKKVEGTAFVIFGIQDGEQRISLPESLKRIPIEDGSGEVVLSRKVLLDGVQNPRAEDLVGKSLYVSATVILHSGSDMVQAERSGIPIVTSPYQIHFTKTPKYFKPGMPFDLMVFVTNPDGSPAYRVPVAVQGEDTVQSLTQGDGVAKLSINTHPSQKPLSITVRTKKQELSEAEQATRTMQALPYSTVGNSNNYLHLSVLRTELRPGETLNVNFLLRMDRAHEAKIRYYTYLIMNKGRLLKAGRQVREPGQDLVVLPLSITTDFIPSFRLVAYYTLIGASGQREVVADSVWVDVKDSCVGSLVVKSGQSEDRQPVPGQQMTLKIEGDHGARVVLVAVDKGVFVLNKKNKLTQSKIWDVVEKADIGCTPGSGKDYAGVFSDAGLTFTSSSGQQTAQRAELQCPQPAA
human C3b, sequence (P01024 749-1663 limits assumed, form in doubt, chain 2 of 2): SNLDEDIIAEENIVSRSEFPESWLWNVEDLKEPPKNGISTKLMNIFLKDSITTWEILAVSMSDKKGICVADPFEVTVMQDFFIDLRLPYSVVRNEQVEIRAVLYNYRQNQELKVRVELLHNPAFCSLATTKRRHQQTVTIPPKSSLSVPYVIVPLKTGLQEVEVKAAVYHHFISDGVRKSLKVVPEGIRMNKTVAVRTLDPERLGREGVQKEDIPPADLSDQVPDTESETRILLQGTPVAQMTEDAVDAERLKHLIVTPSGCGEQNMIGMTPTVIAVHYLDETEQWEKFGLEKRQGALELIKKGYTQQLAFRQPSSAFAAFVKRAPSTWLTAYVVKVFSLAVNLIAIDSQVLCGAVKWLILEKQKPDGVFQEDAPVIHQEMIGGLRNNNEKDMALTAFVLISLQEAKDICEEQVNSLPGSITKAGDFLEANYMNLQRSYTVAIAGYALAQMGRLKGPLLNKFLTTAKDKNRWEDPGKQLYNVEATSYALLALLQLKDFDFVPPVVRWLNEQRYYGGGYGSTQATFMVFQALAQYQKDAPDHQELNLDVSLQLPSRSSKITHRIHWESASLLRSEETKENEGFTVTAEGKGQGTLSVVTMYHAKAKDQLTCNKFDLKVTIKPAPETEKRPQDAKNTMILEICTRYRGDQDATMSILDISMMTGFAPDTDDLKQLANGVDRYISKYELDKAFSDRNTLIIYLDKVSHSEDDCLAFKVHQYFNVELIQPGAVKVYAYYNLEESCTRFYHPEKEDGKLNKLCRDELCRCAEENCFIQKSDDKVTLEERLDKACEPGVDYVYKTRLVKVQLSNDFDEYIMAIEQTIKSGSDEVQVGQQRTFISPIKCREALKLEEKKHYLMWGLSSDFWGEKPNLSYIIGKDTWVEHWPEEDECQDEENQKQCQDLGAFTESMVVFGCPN

B1: small polypeptide comprising CCPs 8-10 of CR1 (SEQ ID NO:3) (receptor)
chain: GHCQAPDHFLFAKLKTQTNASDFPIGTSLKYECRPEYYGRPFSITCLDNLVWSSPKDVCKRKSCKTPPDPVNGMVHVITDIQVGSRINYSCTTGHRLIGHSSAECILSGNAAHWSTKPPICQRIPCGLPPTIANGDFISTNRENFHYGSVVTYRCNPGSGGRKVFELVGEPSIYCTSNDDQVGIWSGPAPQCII
As to B1, the “IC50 of inhibition of MAC formation in zymosan activated human serum (Wieslab Complement system Screen kit ELISA, FIG. 9)” value is 125 nM.
